Data published in paper PMC4017264 (Molecular Cell, 2014).
“And” between values parts separate entries of the source, which are not always exact repeats. Identical values can stand only once. No end group written: not given here. *: point of attachment. FITC = O=C1OC2(c3ccc(O)cc3Oc3cc(O)ccc32)c2ccc(NC(=S)*)cc21; Ahx = NCCCCCC(=O)O

What was measured:
[1] = tested on: HOIP (Met1-linked polyUb); experiment: HOIP autoubiquitination, purification of endogenous Met1-polyUb conjugates (M1-SUB pulldown); format: cell-based; settings: U2OS/NOD2 cells, ectopic OTULIN variants, basal, identical with L18-MDP or TNF, immunoblot
Source text: Antibodies and affinity resin
The following antibodies and reagents were used according to the manufacturers’ instructions: anti-HA-agarose resin (A2095), anti-V5-agarose resin (A7345) and rabbit polyclonal anti-HOIP/RNF31 (SAB2102031, Sigma-Aldrich), rat monoclonal anti-HA (#11867423991, Roche Diagnostics, Burgess Hill, UK), mouse monoclonal anti-ubiquitin (IMG-5021, Imgenex, San Diego, CA), rabbit polyclonal anti-SHARPIN (#14626-1-AP, ProteinTech, Chicago, IL), rabbit polyclonal anti-RBCK1/HOIL-1 (NBP1-88301, Novus Biologicals, Littleton, CO), mouse monoclonal anti-V5 (MCA1360, AbD Serotec, Kidlington, UK), mouse monoclonal anti-$-actin (MAB1501, Chemicon, Millipore, Billerica, MA), rabbit polyclonal anti-HOIL-1, rabbit polyclonal anti-HOIP/RNF31
(Sigma), mouse monoclonal anti-p97 (Thermo Scientific). The
Fam105B/OTULIN antibody was previously described (Keusekotten et al., 2013). […]
HEK293ET, RPE1 and U2OS cells were collected, washed with PBS and lysed on ice for 30 minutes in SEC cell extraction buffer (150 mM NaCl, 50 mM Tris-HCl pH 7.4, 1 mM MgCl2, 1 mM DTT, 0.3% NP40, protease and (Roche)). […] In total 3.1 mg protein extract was analyzed on a Superdex 200 10/300 GL column (GE Life Sciences). […]

[2] = target: FITC-Ahx-labeled OTULIN PIM peptide (aa 49–67) (UniProt Q96BN8); experiment: fluorescence polarisation; serially diluted PUB domains and HOIP variants mixed with an equal volume of 100 nM FITC-Ahx-labeled peptide; one-site binding model; triplicate
HOIP PUB domain K99R = target: T1, HOIP PUB domain K99R (UniProt Q96EP0 1-184, K99R); experiment: as above; settings: both partners purified
T1 construct: HOIP PUB domain with K99R
T1 sequence (looked up): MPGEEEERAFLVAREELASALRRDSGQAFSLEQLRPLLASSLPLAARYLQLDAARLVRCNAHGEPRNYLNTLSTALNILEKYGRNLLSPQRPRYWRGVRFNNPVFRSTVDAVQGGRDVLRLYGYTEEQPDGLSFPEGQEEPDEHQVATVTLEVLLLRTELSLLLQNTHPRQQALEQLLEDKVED

[3] = target: T2, HOIP PUB domain (aa 1–184) N85A (UniProt Q96EP0 1-184, N85A); experiment: as above; settings: both partners purified
T2 sequence (looked up): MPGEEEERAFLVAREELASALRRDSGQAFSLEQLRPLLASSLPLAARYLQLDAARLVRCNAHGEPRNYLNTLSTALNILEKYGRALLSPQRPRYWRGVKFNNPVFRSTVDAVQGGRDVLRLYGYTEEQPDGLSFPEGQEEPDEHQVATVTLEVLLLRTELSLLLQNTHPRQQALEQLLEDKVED

[4] = target: T3, HOIP PUB domain (aa 1–184) Y82F (UniProt Q96EP0 1-184, Y82F); experiment: as above; settings: both partners purified
T3 sequence (looked up): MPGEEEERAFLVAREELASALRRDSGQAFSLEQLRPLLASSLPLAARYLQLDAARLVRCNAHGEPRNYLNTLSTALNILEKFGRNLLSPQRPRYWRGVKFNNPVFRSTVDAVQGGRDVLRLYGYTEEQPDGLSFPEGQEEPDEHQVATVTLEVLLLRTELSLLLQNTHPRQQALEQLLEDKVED

[5] = target: T4, HOIP PUB domain (aa 1–184) V104A (UniProt Q96EP0 1-184, V104A); experiment: as above; settings: both partners purified
T4 sequence (looked up): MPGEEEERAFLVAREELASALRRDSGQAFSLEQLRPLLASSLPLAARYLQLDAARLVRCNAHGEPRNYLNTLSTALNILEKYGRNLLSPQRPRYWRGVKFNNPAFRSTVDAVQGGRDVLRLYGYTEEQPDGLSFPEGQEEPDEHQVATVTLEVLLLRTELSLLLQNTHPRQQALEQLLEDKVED

PNGase PUB domain R55A = target: T5, PNGase PUB domain R55A (UniProt Q96IV0 11-109, Arg55 was mutated to Ala); experiment: as above; settings: both partners purified
T5 construct: PNGase PUB domain with Arg55 mutated to Ala; also called PNGase mutant; Arg55 mutated to Ala
T5 sequence (looked up): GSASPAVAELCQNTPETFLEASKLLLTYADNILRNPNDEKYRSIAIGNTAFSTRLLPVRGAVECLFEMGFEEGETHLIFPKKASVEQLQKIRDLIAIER

HOIP PUB domain N101R = target: T6, HOIP PUB domain N101R (UniProt Q96EP0 1-184, N101R); experiment: as above; settings: both partners purified
T6 construct: HOIP PUB domain with N101R
T6 sequence (looked up): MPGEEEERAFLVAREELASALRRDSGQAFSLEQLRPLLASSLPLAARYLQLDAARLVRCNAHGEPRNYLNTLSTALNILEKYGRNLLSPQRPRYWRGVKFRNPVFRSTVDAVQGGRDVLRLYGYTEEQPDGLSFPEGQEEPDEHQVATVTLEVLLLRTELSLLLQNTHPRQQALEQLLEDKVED

[6] = target: HOIP PUB domain (aa 1–184) N85A (UniProt Q96EP0 1-184, N85A); experiment: FP
[7] = target: HOIP PUB domain (aa 1–184) Y82F (UniProt Q96EP0 1-184, Y82F); experiment: FP
[8] = target: T7, PNGase PUB domain (aa 11–109) (UniProt Q96IV0 11-109); experiment: fluorescence polarisation; serially diluted PUB domains and HOIP variants mixed with an equal volume of 100 nM FITC-Ahx-labeled peptide; one-site binding model; triplicate; settings: both partners purified
T7 construct: PNGase (peptide:N-glycanase), PUB domain, residues 11-109
T7 sequence (looked up): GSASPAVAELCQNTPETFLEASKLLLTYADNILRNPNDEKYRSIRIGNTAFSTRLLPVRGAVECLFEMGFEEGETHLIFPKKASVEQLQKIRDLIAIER

[9] = target: T8, HOIP extended PUB domain (aa 1–184) (UniProt Q96EP0 1-184); experiment: as above; settings: both partners purified
T8 construct: 15N- or 13C,15N-labelled for NMR; Construct details are in the Supplemental Experimental Procedures; also called HOIP PUB domain
T8 sequence (looked up): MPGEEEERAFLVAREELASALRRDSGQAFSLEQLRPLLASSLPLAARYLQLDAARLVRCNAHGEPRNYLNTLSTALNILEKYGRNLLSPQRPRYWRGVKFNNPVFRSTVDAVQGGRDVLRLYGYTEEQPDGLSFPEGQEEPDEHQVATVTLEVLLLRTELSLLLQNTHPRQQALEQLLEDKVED

[10] = target: T9, UBXD1 PUB domain (aa 150–264) (UniProt Q9BZV1 150-264); experiment: as above; settings: both partners purified
T9 construct: UBXD1, PUB domain, residues 150-264; also called minimal UBXD1 PUB domain
T9 sequence (looked up): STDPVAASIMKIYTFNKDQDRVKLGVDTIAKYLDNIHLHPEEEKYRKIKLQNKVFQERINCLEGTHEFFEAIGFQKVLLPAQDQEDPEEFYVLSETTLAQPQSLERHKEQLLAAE

[11] = target: T10, HOIP PUB domain (aa 5–180) (UniProt Q96EP0 5-180); experiment: crystal structure; HOIP 5–180 with OTULIN 49–67, 2.0 Å, space group P 6(1), two molecules in the asymmetric unit; settings: both partners purified
T10 construct: HOIP, residues 5-180, PUB domain; also called HOIP 5–180; slightly truncated HOIP PUB domain construct
T10 sequence (looked up): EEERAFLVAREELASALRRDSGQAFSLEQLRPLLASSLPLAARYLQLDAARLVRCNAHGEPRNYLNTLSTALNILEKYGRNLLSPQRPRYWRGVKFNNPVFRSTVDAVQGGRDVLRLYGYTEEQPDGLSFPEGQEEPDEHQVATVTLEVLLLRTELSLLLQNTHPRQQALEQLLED

[12] = target: T8, HOIP extended PUB domain (aa 1–184); experiment: fluorescence polarisation; competition assay: p97 PIM peptide competes with the OTULIN PIM for the HOIP PIM pocket; settings: both partners purified

inactive OTULIN with a mutation in the PIM (Y56A): catalytically inactive OTULIN (C129A) with PIM mutation Y56A
HOIP autoubiquitination with Met1-linked polyUb (in words) [1]: did not lead to HOIP autoubiquitination

HOIP extended PUB domain (aa 1–184) (from UniProt Q96EP0 1-184) (domain or fragment)
Kd [2]: 0.18 µM

B1: FITC-Ahx-labeled OTULIN PIM peptide (aa 49–67) (peptide, UniProt Q96BN8 49-67, looked up)
peptide: {FITC-Ahx}-AEHEEDMYRAADEIEKEKE
notes: OTULIN, residues 49-67, holds the EEDMYR motif (residues 52-57); also called OTULIN peptide; wild-type OTULIN PIM peptide
binding result (HOIP PUB domain K99R): binds
binding result [3]: binds
binding result [4]: binds
binding result [5]: binds
Kd (PNGase PUB domain R55A): 43 µM
Kd (HOIP PUB domain N101R): 0.1 µM
Kd [6]: 1.04 µM
Kd [7]: 9.38 µM

B2: FITC-Ahx-labeled p97 PIM peptide (aa 797–806) (peptide, UniProt P55072 797-806, looked up)
peptide: {FITC-Ahx}-TEDNDDDLYG
notes: p97 (VCP), C-terminal residues 797-806; also called p97 peptide; fluorescent p97 PIM peptide
Kd [8]: 3 µM
binding result (HOIP PUB domain K99R): binds
Kd [9]: 7.6 µM and 6 µM
Kd [10]: 12 µM
Kd (HOIP PUB domain N101R): 0.9 µM

B3: unlabeled OTULIN PIM peptide (aa 49–67) (peptide, UniProt Q96BN8 49-67, looked up)
peptide: AEHEEDMYRAADEIEKEKE
notes: OTULIN, residues 49-67; Called unlabeled for NMR; also called OTULIN 49–67
binding result [11]: binds

B4: fluorescently labeled OTULIN PIM peptide (aa 49–67) M55L (peptide, UniProt Q96BN8 49-67, looked up)
peptide: {FITC-Ahx}-AEHEEDLYRAADEIEKEKE
notes: OTULIN, residues 49-67, Met55 exchanged to Leu (as in p97); also called OTULIN M55L PIM peptide
Kd [9]: 0.37 µM
Kd (PNGase PUB domain R55A): 5 µM

B5: unlabeled p97 PIM peptide (peptide, UniProt P55072 797-806, looked up)
peptide: TEDNDDDLYG
notes: p97 (VCP) PIM peptide; also called p97 peptide
Ki [12]: 37 µM
